Data reported in the Human Domainome abundance scans (Beltran et al. 2025).
± gives the uncertainty stated by the source.

B1: Far upstream element-binding protein 1, residues 184 to 257; numbered along this chain, Q96AE4 (parent)
chain: GNAVQEIMIPASKAGLVIGKGGETIKQLQERAGVKMVMIQDGPQNTGADKPLRITGDPYKVQQAKEMVLELIRD

Variants of: B1
Test: abundance fitness (aPCA) (normalised: wild type 0, dead -1); higher = more abundant; growth selection in yeast, the domain comes from the species named
Settings: Homo sapiens

Point of comparison: GNAVQEIMIPASKAGLVIGKGGETIKQLQERAGVKMVMIQDGPQNTGADKPLRITGDPYKVQQHKEMVLELIRD [A64H], abundance fitness -0.967 ± 0.086. Against it:
- GNAVQEIMIPASKAGLVIGKGGETIKQLQERAGVKMVMIQDGPQNTGADKPLRITGDPYKVQQQKEMVLELIRD [A64Q] — higher, -0.695 ± 0.049
- GNAVQEIMIPASKAGLVIGKGGETIKQLQERAGVKMVMIQDGPQNTGADKPLRITGDPYKVQQGKEMVLELIRD [A64G] — higher, -0.051 ± 0.027
- GNAVQEIMIPASKAGLVIGKGGETIKQLQERAGVKMVMIQDGPQNTGADKPLRITGDPYKVQQDKEMVLELIRD [A64D] — higher, -0.725 ± 0.059
- GNAVQEIMIPASKAGLVIGKGGETIKQLQERAGVKMVMIQDGPQNTGADKPLRITGDPYKVQQNKEMVLELIRD [A64N] — higher, -0.772 ± 0.073
- GNAVQEIMIPASKAGLVIGKGGETIKQLQERAGVKMVMIQDGPQNTGADKPLRITGDPYKVQQSKEMVLELIRD [A64S] — higher, -0.228 ± 0.031
- GNAVQEIMIPASKAGLVIGKGGETIKQLQERAGVKMVMIQDGPQNTGADKPLRITGDPYKVQQFKEMVLELIRD [A64F] — higher, -0.754 ± 0.064
- GNAVQEIMIPASKAGLVIGKGGETIKQLQERAGVKMVMIQDGPQNTGADKPLRITGDPYKVQQIKEMVLELIRD [A64I] — higher, -0.561 ± 0.054
- GNAVQEIMIPASKAGLVIGKGGETIKQLQERAGVKMVMIQDGPQNTGADKPLRITGDPYKVQQVKEMVLELIRD [A64V] — higher, -0.262 ± 0.032
- GNAVQEIMIPASKAGLVIGKGGETIKQLQERAGVKMVMIQDGPQNTGADKPLRITGDPYKVQQMKEMVLELIRD [A64M] — higher, -0.469 ± 0.042
- GNAVQEIMIPASKAGLVIGKGGETIKQLQERAGVKMVMIQDGPQNTGADKPLRITGDPYKVQQPKEMVLELIRD [A64P] — higher, -0.784 ± 0.048
- GNAVQEIMIPASKAGLVIGKGGETIKQLQERAGVKMVMIQDGPQNTGADKPLRITGDPYKVQQCKEMVLELIRD [A64C] — higher, -0.118 ± 0.042
- GNAVQEIMIPASKAGLVIGKGGETIKQLQERAGVKMVMIQDGPQNTGADKPLRITGDPYKVQQTKEMVLELIRD [A64T] — higher, -0.296 ± 0.037
- GNAVQEIMIPASKAGLVIGKGGETIKQLQERAGVKMVMIQDGPQNTGADKPLRITGDPYKVQQEKEMVLELIRD [A64E] — higher, -0.694 ± 0.041
- GNAVQEIMIPASKAGLVIGKGGETIKQLQERAGVKMVMIQDGPQNTGADKPLRITGDPYKVQRAKEMVLELIRD [Q63R] — higher, -0.026 ± 0.026
- GNAVQEIMIPASKAGLVIGKGGETIKQLQERAGVKMVMIQDGPQNTGADKPLRITGDPYKVQMAKEMVLELIRD [Q63M] — higher, -0.026 ± 0.036
- GNAVQEIMIPASKAGLVIGKGGETIKQLQERAGVKMVMIQDGPQNTGADKPLRITGDPYKVQAAKEMVLELIRD [Q63A] — higher, -0.022 ± 0.03
- GNAVQEIMIPASKAGLVIGKGGETIKQLQERAGVKMVMIQDGPQNTGADKPLRITGDPYKVQKAKEMVLELIRD [Q63K] — higher, 0 ± 0.036
- GNAVQEIMIPASKAGLVIGKGGETIKQLQERAGVKMVMIQDGPQNTGADKPLRITGDPYKVQGAKEMVLELIRD [Q63G] — higher, -0.058 ± 0.027
- GNAVQEIMIPASKAGLVIGKGGETIKQLQERAGVKMVMIQDGPQNTGADKPLRITGDPYKVQNAKEMVLELIRD [Q63N] — higher, -0.107 ± 0.049
- GNAVQEIMIPASKAGLVIGKGGETIKQLQERAGVKMVMIQDGPQNTGADKPLRITGDPYKVQFAKEMVLELIRD [Q63F] — higher, -0.116 ± 0.047
- GNAVQEIMIPASKAGLVIGKGGETIKQLQERAGVKMVMIQDGPQNTGADKPLRITGDPYKVQDAKEMVLELIRD [Q63D] — higher, -0.116 ± 0.04
- GNAVQEIMIPASKAGLVIGKGGETIKQLQERAGVKMVMIQDGPQNTGADKPLRITGDPYKVQHAKEMVLELIRD [Q63H] — higher, -0.069 ± 0.049
- GNAVQEIMIPASKAGLVIGKGGETIKQLQERAGVKMVMIQDGPQNTGADKPLRITGDPYKVQSAKEMVLELIRD [Q63S] — higher, -0.061 ± 0.03
- GNAVQEIMIPASKAGLVIGKGGETIKQLQERAGVKMVMIQDGPQNTGADKPLRITGDPYKVQIAKEMVLELIRD [Q63I] — higher, -0.025 ± 0.05
- GNAVQEIMIPASKAGLVIGKGGETIKQLQERAGVKMVMIQDGPQNTGADKPLRITGDPYKVQPAKEMVLELIRD [Q63P] — higher, -0.408 ± 0.036
- GNAVQEIMIPASKAGLVIGKGGETIKQLQERAGVKMVMIQDGPQNTGADKPLRITGDPYKVQVAKEMVLELIRD [Q63V] — higher, -0.038 ± 0.031
- GNAVQEIMIPASKAGLVIGKGGETIKQLQERAGVKMVMIQDGPQNTGADKPLRITGDPYKVQTAKEMVLELIRD [Q63T] — higher, -0.039 ± 0.033
- GNAVQEIMIPASKAGLVIGKGGETIKQLQERAGVKMVMIQDGPQNTGADKPLRITGDPYKVQYAKEMVLELIRD [Q63Y] — higher, -0.027 ± 0.05
- GNAVQEIMIPASKAGLVIGKGGETIKQLQERAGVKMVMIQDGPQNTGADKPLRITGDPYKVQEAKEMVLELIRD [Q63E] — higher, 0.006 ± 0.035
- GNAVQEIMIPASKAGLVIGKGGETIKQLQERAGVKMVMIQDGPQNTGADKPLRITGDPYKVQCAKEMVLELIRD [Q63C] — higher, 0.013 ± 0.045
- GNAVQEIMIPASKAGLVIGKGGETIKQLQERAGVKMVMIQDGPQNTGADKPLRITGDPYWVQQAKEMVLELIRD [K60W] — higher, -0.314 ± 0.032
- GNAVQEIMIPASKAGLVIGKGGETIKQLQERAGVKMVMIQDGPQNTGADKPLRITGDPYYVQQAKEMVLELIRD [K60Y] — higher, -0.233 ± 0.056
- GNAVQEIMIPASKAGLVIGKGGETIKQLQERAGVKMVMIQDGPQNTGADKPLRITGDPYKVQQAFEMVLELIRD [K65F] — higher, -0.241 ± 0.049
- GNAVQEIMIPASKAGLVIGKGGETIKQLQERAGVKMVMIQDGPQNTGADKPLRITGDPYKVQQADEMVLELIRD [K65D] — higher, -0.577 ± 0.056
- GNAVQEIMIPASKAGLVIGKGGETIKQLQERAGVKMVMIQDGPQNTGADKPLRITGDPYKVQQACEMVLELIRD [K65C] — higher, -0.097 ± 0.04
- GNAVQEIMIPASKAGLVIGKGGETIKQLQERAGVKMVMIQDGPQNTGADKPLRITGDPYKVQQAAEMVLELIRD [K65A] — higher, -0.064 ± 0.032
